Laboratory results as given in patent US20210221874A1.

Target: anthrax protective antigen, wild type PA83 (Bacillus anthracis) (UniProt P13423)
Sequence (P13423 30-764): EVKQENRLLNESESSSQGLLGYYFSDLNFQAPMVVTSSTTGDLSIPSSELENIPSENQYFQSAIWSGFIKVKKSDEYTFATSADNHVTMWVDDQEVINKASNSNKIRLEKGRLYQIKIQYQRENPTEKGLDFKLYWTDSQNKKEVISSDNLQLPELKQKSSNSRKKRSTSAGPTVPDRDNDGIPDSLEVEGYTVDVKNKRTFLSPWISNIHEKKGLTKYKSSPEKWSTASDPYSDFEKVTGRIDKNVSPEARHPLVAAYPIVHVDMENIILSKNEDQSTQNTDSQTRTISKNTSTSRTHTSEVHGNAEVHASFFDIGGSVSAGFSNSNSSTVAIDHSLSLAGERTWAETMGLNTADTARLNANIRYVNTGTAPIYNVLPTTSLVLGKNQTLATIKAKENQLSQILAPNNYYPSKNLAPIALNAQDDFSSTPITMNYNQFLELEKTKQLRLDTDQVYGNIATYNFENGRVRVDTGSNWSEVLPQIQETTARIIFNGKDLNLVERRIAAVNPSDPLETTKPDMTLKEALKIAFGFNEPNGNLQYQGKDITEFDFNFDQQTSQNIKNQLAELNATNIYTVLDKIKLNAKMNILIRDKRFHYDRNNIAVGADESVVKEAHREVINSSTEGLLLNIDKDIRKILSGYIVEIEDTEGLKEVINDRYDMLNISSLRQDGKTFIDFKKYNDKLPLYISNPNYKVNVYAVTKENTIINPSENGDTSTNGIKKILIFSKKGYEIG

“neutralizing anti-PA mouse monoclonal antibody 14B7” was tested, and the IC50 (read off the curve) was 10 nM.
